Target: fluorescein-labeled 16-mer Pogo Ligase peptide (FAM-PL)
Experiment: fluorescence polarisation

Sequence of recombinant (His)6-PCNA protein (proliferating cell nuclear antigen) (P12004 whole entry): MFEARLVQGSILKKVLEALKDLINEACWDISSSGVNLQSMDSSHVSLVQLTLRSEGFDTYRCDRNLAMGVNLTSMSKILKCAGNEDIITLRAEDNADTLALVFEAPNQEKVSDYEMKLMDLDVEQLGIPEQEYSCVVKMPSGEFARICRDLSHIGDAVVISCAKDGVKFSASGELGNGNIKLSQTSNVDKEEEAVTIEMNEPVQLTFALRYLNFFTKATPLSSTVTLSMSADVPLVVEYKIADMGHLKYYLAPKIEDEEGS

percent of peptide bound (5 nM FAM-PL, 1 uM PCNA): > 80%
Substance: recombinant (His)6-PCNA protein (proliferating cell nuclear antigen) (from UniProt P12004 1-261) (natural protein)
